Data set [1] concerns the molecule itself. The data set is described as follows: SEC. A general note: SEC sorts molecules by how far they enter the pores of the column.
Data set [2] deals with the molecule itself. The data set is described as follows: SEC. This is another data set of the same source.

Data on three proteins can be found in publication doi:10.1101/2025.11.10.687516 (bioRxiv, 2025).

“And” between values parts separate entries of the source, which are not always exact repeats. Equal entries are not always repeated. Where two headings read alike, the source gives them in different places.

B1: GrxB (natural protein, E. coli, UniProt P0AC59 1-215, looked up)
chain: MKLYIYDHCPYCLKARMIFGLKNIPVELHVLLNDDAETPTRMVGQKQVPILQKDDSRYMPESMDIVHYVDKLDGKPLLTGKRSPAIEEWLRKVNGYANKLLLPRFAKSAFDEFSTPAARKYFVDKKEASAGNFADLLAHSDGLIKNISDDLRALDKLIVKPNAVNGELSEDDIQLFPLLRNLTLVAGINWPSRVADYRDNMAKQTQINLLSSMAI
Broadly, the stoichiometry N is the number of molecules, sites or subunits per partner or assembly. In the case of B1, in “SEC [1]”, the “stoichiometry N” value was 2.

B2: PhnO (natural protein, UniProt P16691 1-144, looked up)
chain: MPACELRPATQYDTDAVYALICELKQAEFDHHAFRVGFNANLRDPNMRYHLALLDGEVVGMIGLHLQFHLHHVNWIGEIQELVVMPQARGLNVGSKLLAWAEEEARQAGAEMTELSTNVKRHDAHRFYLREGYEQSHFRFTKAL
Turning to B2, the “stoichiometry N” value in “SEC [2]” came to 2.

B3: D-tagatose-1,6-bisphosphate aldolase subunit GatZ (natural protein, E. coli, UniProt P0C8J8 1-420, looked up)
chain: MKTLIARHKAGEHIGICSVCSAHPLVIEAALAFDRNSTRKVLIEATSNQVNQFGGYTGMTPADFREFVFTIADKVGFARERIILGGDHLGPNCWQQENADAAMEKSVELVKEYVRAGFSKIHLDASMSCAGDPIPLAPETVAERAAVLCFAAESVATDCQREQLSYVIGTEVPVPGGEASAIQSVHITHVEDAANTLRTHQKAFIARGLTEALTRVIAIVVQPGVEFDHSNIIHYQPQEAQPLAQWIENTRMVYEAHSTDYQTRTAYWELVRDHFAILKVGPALTFALREAIFALAQIEQELIAPENRSGCLAVIEEVMLDEPQYWKKYYRTGFNDSLLDIRYSLSDRIRYYWPHSRIKNSVETMMVNLEGVDIPLGMISQYLPKQFERIQSGELSAIPHQLIMDKIYDVLRAYRYGCAE
As for B3, the “stoichiometry N” value in “SEC [1]” is 2 and 4.
